Results taken from PMC3764193.

Target: T1, recombinant (His)6-Bwc2 (Cryptococcus neoformans var. neoformans JEC21) (UniProt Q5EGQ1)
T1 sequence: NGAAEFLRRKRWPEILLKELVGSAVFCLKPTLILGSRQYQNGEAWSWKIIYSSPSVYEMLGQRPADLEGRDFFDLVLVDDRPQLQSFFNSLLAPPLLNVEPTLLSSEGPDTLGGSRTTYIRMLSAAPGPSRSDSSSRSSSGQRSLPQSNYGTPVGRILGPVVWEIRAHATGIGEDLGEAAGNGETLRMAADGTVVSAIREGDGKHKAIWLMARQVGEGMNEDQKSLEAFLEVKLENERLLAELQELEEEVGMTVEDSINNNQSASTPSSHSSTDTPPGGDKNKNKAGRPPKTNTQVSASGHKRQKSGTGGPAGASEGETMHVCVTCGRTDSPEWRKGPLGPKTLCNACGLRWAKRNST
Assay: EMSA
Settings: 1X EMSA buffer (from 5X: 20% w/v glycerol, 5 mM MgCl2, 250 mM NaCl, 2.5 mM EDTA pH 8, 10 mM DTT, +/-12 uM ZnSO4) + 1X phosphate buffer, 20 ul; 20 min …

Which binding does the source give for “GTAGTCACCAGTCATTCAGTTACTCTGTTATGACGTGACGTCGTTACTCTCGATCTTCATCTCGATCTCCACCTTGCAAGCTTTTCAGGCTTTTTACTCATCGTTCACTATATAATACGATACCACACTTGACATTTCTTCGGTATGTATAAAACGCAGTCGCGAGTACTTCCTTCTGCTTTTGCAACAAACACGTCTGCATTTGTTGCCAAGTATTTATATCAGCATTAAGTACATGAGGTTC (double strand) [P1 (UVE1 promoter)]” here?
Its binding is “binds”.
